According to PMC6713228 (2018):

T1: CD20 (Homo sapiens, UniProt P11836)
T1 chain: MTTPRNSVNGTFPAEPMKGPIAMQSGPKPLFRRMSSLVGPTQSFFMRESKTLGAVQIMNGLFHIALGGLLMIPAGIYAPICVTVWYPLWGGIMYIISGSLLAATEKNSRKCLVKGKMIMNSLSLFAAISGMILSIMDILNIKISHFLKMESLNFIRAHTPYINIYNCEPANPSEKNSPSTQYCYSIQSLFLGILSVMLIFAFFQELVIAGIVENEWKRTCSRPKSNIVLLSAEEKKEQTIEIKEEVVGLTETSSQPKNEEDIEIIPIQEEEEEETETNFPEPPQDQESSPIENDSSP

B1: rituximab (antibody, V domains shown)
VH: QVQLQQPGAELVKPGASVKMSCKASGYTFTSYNMHWVKQTPGRGLEWIGAIYPGNGDTSYNQKFKGKATLTADKSSSTAYMQLSSLTSEDSAVYYCARSTYYGGDWYFNVWGAGTTVTVSA
VL: QIVLSQSPAILSASPGEKVTMTCRASSSVSYIHWFQQKPGSSPKPWIYATSNLASGVPVRFSGSGSGTSYSLTISRVEAEDAATYYCQQWTSNPPTFGGGTKLEIK
modifications: FITC-labeled rituximab

Tests used:
CD20 (Homo sapiens) = CD20 (Homo sapiens) (UniProt P11836); settings: cited from earlier work
CD20 = molecular target: T1, CD20

| Molecule | Kd (CD20 (Homo sapiens)) [nM] | Kd (CD20) [nM] |
| --- | --- | --- |
| rituximab | 4.96 | – |
| B1 | – | 4.82 |
